Consider 25 sequences from the DeepSol protein solubility set.

This data set is described as follows: soluble on expression in E. coli; label from the status in PepcDB or PDB records.
As to “MGSDKIHHHHHHMLTVLLLAGAEKLINMAIASDEITKAGLVPLAGKVLRLNMGTPDVNLDVLFTQERLRFEPVTTESVFEQSGTMNERQKASLERGRLGHSRPDCIITVANPAQLLNLMRGTEGNLPIEGDYKVLMQLNQLVAGFDPDVAGQLEPFIGKPMASQLHLLISQLKGSWRHSAKRAFNDVSDWANDVAGNVTPDTSEAAEVNVLKQQLLKLRADVEREEARLAAIKDEQARLTNSR”, the “soluble on expression in E. coli” value is “not soluble”.
The result for “SNAMKLTPNFYRDRVCLNVLAGSKDNAREIYDAAEGHVLVGVLSKNYPDVASAVVDMRDYAKLIDNALSVGLGAGDPNQSAMVSEISRQVQPQHVNQVFTGVATSRALLGQNETVVNGLVSPTGTPGMVKISTGPLSSGAADGIVPLETAIALLKDMGGSSIKYFPMGGLKHRAEFEAVAKACAAHDFWLEPTGGIDLENYSEILKIALDAGVSKIIPHIYSSIIDKASGNTRPADVRQLLEMTKQLVK” reads “soluble”; that for “MSGRLTGKVALVSGGARGMGASHVRAMVAEGAKVVFGDILDEEGKAMAAELADAARYVHLDVTQPAQWKAAVDTAVTAFGGLHVLVNNAGILNIGTIEDYALTEWQRILDVNLTGVFLGIRAVVKPMKEAGRGSIINISSIEGLAGTVACHGYTATKFAVRGLTKSTALELGPSGIRVNSIHPGLVKTPMTDWVPEDIFQTALGRAAEPVEVSNLVVYLASDESSYSTGAEFVVDGGTVAGLAHNDFGAVEVSSQPEWVT”, “soluble”; that for “SEGWAGRVRRHLAGDPARGPTMDVLAAELGVSVRTLRRRLADEGTDYETVVDEIREALAEALLATTTLTVAEVSERLGYSEPSAFARAFRRWKAMSPNEYRRSA”, “soluble”.
The result for “MGSDKIHHHHHHMARVKEEADRISEQANSHIENIRRQIEQEKNDWAAEKQKLIEEAKAEGFEQGVALGKAEAMKQYAELIGQANTITEMSRKAVEDKLEDANEEIVELAVALAKKVWQQKSDDKEAFLLLVQQVINEVKEYDDISIYVDPYYYETIFQQKDEIQQLLYKECRLGIYADEKAQKGTCYIETPFGRVDASVDTQLMQLKDKLLTALEAGAAE” reads “not soluble”; that for “MPKMDVKGIAVTVYSENAMDFISLTDMLRAKDGDFFISDWLRNRNTVEFLGIWEQVHNPNFNYGEFATIRSQAGLNSYKISVKEWVARTHAIGLVAKAGRYGGTYAHKDIAFEFGMWISAEFKIYLIKEFQRLKEAEQQQLGWDIRRNLTKINYRIHTDAIQTNLIPPALTQSQISLIYASEADLLNMALFGKTAKQWREENPNNKGNIRDEANVSQLVCLANLETLNAHFIHQGLPQVERLKILNQTAIHQMKLLLADRSLKQLDGN”, “not soluble”; that for “MWWREKLFDGLRALELTKKTLKNKKERESMNQEELDKKLKKQEILVKDEKVWSYTYEDHISSIVKEAEKKGSFDHLPGKGKPLNLDKDLSYNPEKQLYRTLKNNHVLPRWIELSKEIDDLKEKLKENTNTAETADLIRTINKKVLEHNLLCPPSAQKTRVKTDFLEHHHHHH”, “soluble”.
“MEKSLVDTVYALKDEVQELRQDNKKMKKSLEEEQRARKDLEKLVRKVLKNMNDPAWDETNL”: the “soluble on expression in E. coli” value is given as “soluble”.
To “MSLETINNSAKKQPGLYISGQYKPSVSVFSNFSVKETNVPTKQLIALKKDINSVAVGSNATTGISNPGNFTIPYTAEFQDNVANFNGAVGYSFPDSLRIEIEGFHEKFDVKNPGGYTQVKDAYRYFALARDLKDGFFEPKAEDTGVYHTVMKNDGLSILSTMVNVCYDFSVDELPVLPYICAGMGINAIEFFDALHVKFAYQGKLGISYQLFTKVNLFLDGYYHQVIGNQFKNLNVNHVYTLKESPKVTSAVATLDIAYFGGEVGIRFTFEGHHHHHH” belongs “not soluble”; to “MGSDKIHHHHHHMSDKKYNVDEGEIAKFSRIADKWWDKSGEFKTLHDINPLRLDYIDGHADLCGKRVLDVGCGGGILAESMARRGAAFVKGIDMAEQSLETARLHAALNNVADIEYECIRVEDLAEAEPHSFDVVTCMEMMEHVPDPAAIVRACAKLVKPDGMVFFSTINKNPKSYLHLIVAAEYLLKFVPKGTHDWKKFIVPAELARMCRQAGLDVADTKGMTYHVLSQTYALCDSTDVNYMFACRPAF”, “not soluble”.
To “TSTDAAGGDSYRVGINQLVQHPALDAATTGFKEAFEEAGVDVTFDEQNANGEQGTALTISQQFASDNLDLVLAVATPAAQATAQNITDIPVLFTAVTDAVSAELVDSNEAPGGNVTGTSDIAPIEQQLELLQQLVPDAKSIGIVYASGEVNSQVQVDEVTKAAEPLGLSVNTQTVTTVNEIQQAVEALGDVDVIYVPTDNMVVSGISSLVQVAEQKQIPVIGAESGTVEGGALATLGIDYTELGRQTGEMALRILQDGEDPATMPVETATEFTYVINEDAAERQGVEIPQEILDKAERV” belongs “not soluble”; to “HFASTRSFLDTVKLDHAIWKNNIYRLLQSGSFGETVNSHSECRLGQWYYRGDGKAYSQLRSYAQLEAPHKGVHDSGRDAMNHAKSGNMAGMVTSINSMEDTSEQVVIHIDRLMDEIIAN”, “not soluble”.
The result for “MQYIKIHALDNVAVALADLAEGTEVSVDNQTVTLRQDVARGHKFALTDIAKGANVIKYGLPIGYALADIAAGEHVHAHNTRTNL” reads “soluble”; that for “MKLKLVDVETNPHEEEVGTCEFCMSVEMVNEPVFVFKKDIGELVRVKAFIWSWGFYDEENIENIVDFAAYVNEQEFDEEQELDYSWLTNLIYEYEYGKDC”, “not soluble”; that for “MGSDKIHHHHHHMNAQTPIRRPISLVLASPRGFCAGVDRAIQIVERAVEKFGAPVYVRHEIVHNRHVVDRLKALGAVFIEELEEAPDDRPVVFSAHGVPKSVPAEAKARQMIYLDATCPLVSKVHVEAQKHYDAGREIVLIGHAGHPEVIGTMGQLPEGAVTLIEDLKDAAAWEPKDAANVAFLTQTTLSVDDTADMVALLRERFPGIAAPHKEDICYATTNRQDAVKHLAEQSELILVVGSKNSSNSVRLKEVGLKAGARDAHLIDDASGIDWTWFDGISRVGLTAGASAPEDLVQGVIDAISARFDTTVEELVEARETITFKLPRLLTA”, “not soluble”.
With “HRTRIEDESIHKLVLDAHRCIHQHLDVLHQQLHQHCEECDLSNIDDAGLEQRLNEWRDEDDSSARMVLQQLHLIYRMLPELHSLASKFAVRVN”, the “soluble on expression in E. coli” value is “not soluble”.
The result for “MAHHHHHHMLLSDAEAKITAVLKSLLDTPRTTYEVENLYQLNCERIAAVRAALADMSGDYVDQLCERCGEAEKQVQAKRAAGVASTAAADNAFSLDFALEEAEGQNEAEIESAISAAAHGSRRPKKSSGKEKSKKKEGEERHKKKEKRTLDDEPLVAPLPAGGGSCENNAADKATSSPSTRWVVLSRDDDLTSSEVLPALSTSDRVKCEAVPNTPLARVFFTEEVTRDGASCQCAVELYRCVVIAMRYGEPQLSWAECEKMMQSQVAAASKAGTIEDEGFDSRSAKRAGARSPKTSSDGDGEGAEDDSTSLVEEMTLSEQLIAQYDQAQQAEEEEEDADTLTLPRDISERFQQRLHGFTDEVWVILLCHGGYFAGGVFARGTCITHKAFQRYVVRKKQGGKQSSNAKDAGSYNSVGSQIRAVQEVKWRVDVRDILLDWMPYIQAASFILYAAPGPQNRAVLTDFSLLPAVASVGGRKGVSPIQLKDPRVSRVPLTTHRPTFEEVRRIYGVCSRCSLLYVRQEEAQERNTN” reads “not soluble”.
The result for “MKSASDPFDLKRFVYAQAPVYRSVVEELRAGRKRGHWMWFVFPQLRGLGSSPLAVRYGISSLEEAQAYLQHDLLGPRLHECTGLVNQVQGRSIEEIFGPPDDLKLCSSMTLFARATDANQDFVALLAKYYGGGEDRRTVALLAVT” reads “soluble”; that for “MGSDKIHHHHHHMHGREAEDGVRSNPTGRQLRFGAELRKLREQAGLSATDAGQLLGIKQTQVSNMEAGRVGVSADRVRTLACHYECSDKALVEAIAAMTGDRTRGWWEEYREILPVGLLDLAELEHHATRLRTAVTVHIPGLFQTTEYAREIFRQAVPELPQPDVEHRVSFRIKRQAILFRDPPTPHQIIVHEAALRMRFGGSDVTRDQLKYLTAMNEREHISVQVIPFDTGVLPGSGQSIYYAEGPVPQLDTVNLDQSHGPVFLDAGAQLRKYRGLLDRMESAALSPEDSQKFIHTILKAL”, “not soluble”; that for “MKKVSSQILHQLRSQRGQSGMWCTNLTHSSTTHHQHPRQTSSHLLQRLESAPCLLKLSTTLLCLEIQQSMSLHPKEAILTTPDAVHREKMLTRSRKGDQTHEDQTDGTRKARNNIGPPNLFWITAKFQEQSTKMPNCWCLQLVNCAQSSILIGLWML”, “not soluble”.
To “MGSDKIHHHHHHMADISIEQSMQLFELQPGKSLDLQINNPVSLRLKLPLIGYELGKYIILKYPKSANTSEYKDVLIEGNVLIVRYLMEGNKGECFAFRSSIKNITQYPEKFIFIEYPNKIENRQLRLQQRTSIHLPAIIMLESSGDNKKTQINGIIGDISAKGCGFTFKTKSTSTKVNKRDIFVCLRSPIDGEVQIPARVCNSRNDNGTVNVGIQFIDNEKLVPKLLSELFIENTMS” belongs “not soluble”; to “MELLCHEVDPVRRAVRDRNLLRDDRVLQNLLTIEERYLPQCSYFKCVQKDIQPYMRRMVATWMLEVCEEQKCEEEVFPLAMNYLDRFLAGVPTPKSHLQLLGAVCMFLASKLKETSPLTAEKLCIYTDNSIKPQELLEWELVVLGKLKWNLAAVTPHDFIEHILRKLPQQREKLSLIRKHAQTFIALCATDFKFAMYPPSMIATGSVGAAICGLQQDEEVSSLTCDALTELLAKITNTDVDCLKACQEQIEAVLLNSLQQYRQDQRDGSKSEDELDQASTPTDVRDIDL”, “not soluble”; to “MGSDKIHHHHHHMRIFDAHCDALLKLWEDPAREYTDDPAIEANAVRLMEGGVRAQCFAIFVGPNIPFDQKFQVALQQAELFHEKILKKHPQFSFIERWDDLLTLDADQIGAILTLEGADPFGDDPTKLKTLYRLGVRSLGLTWNQANLCADGVGEPRGGGLTEWGKAVVSLNNEHHVLTDVSHLSERGFWDVIEYAQFPVATHSNAKAICKHRRNLTDAQLKALIEAGGFIGIVFHPHFLTGTDDASIDDVMKHIEHICSLGGQKHVGFGSDFDGIPCFVDGLEHAGRFQWFMDELLKRYDEELVRGFAWDNFLKATPISYV”, “not soluble”.
“SGCGGSRADAIEPRYYESWTRETESTWLTYTDSDAPPSAAAPDSGPEAGGLHSGMLEDGLPSNGVPRSTAPGGIPNPEKKTNCETQCPNPQSLSSGPLTQKQNGLQTTEAKRDAKRMPAKEVTINVTDSIQQMDRSRRITKNCVN”: the “soluble on expression in E. coli” value is reported as “soluble”.
The result for “MGSDKIHHHHHHMDIPWLVERDDRNERIVLSIKTNAKEALENAYRKKSRVTGKMIAYVHDSCANFFCEEGWLQEGAVSTYFHNGQANVFSFFLKEDRQNSDHERLHREVLSYVQKIERTLELSSHAVQRLNEADTDSLAQLYRHVFERYPTDVFSAQYLQQTMKEGAKFVGVKEGTDIICAASAVPNGFGGWEITDCATKKEARGNGYLSSVLCELEQWLWEEGEENVYSITRSHSFGMNVTIKKRGFSYEGTMVNNCIIGTGFEDMNIWTKRLTATNIC” reads “not soluble”.
